Experimental data taken from the nanobody polyreactivity screen of Harvey et al. (2022).

Test: yeast display, Sf9 membrane polyspecificity reagent, FACS + sequencing; frameworks hold sequencing errors
How it was run: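 Polyreactivity labels are assigned by the sorting gate from which each nanobody was recovered. The gates were low and high (top ~1%), set on anti-HA fluorescence for expression and streptavidin fluorescence for reagent binding. Before sorting, galactose-induced (36–48 hours) yeast display cells were stained for 1 hour at 4 °C with 10% biotinylated, detergent-solubilized Sf9 membrane reagent.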

Sequence	polyreactivity (PSR sort gate)
QVQLVESGGGLVQAGGSLRLSCAASGSTFGVNAMGWSRQAPGKERELVAVITRSGGSTYYADSVKGRFTISRDNAKNTVFLQMNSLIPEDTAVYYCAKSGVVDWGQGTQVTVSS	low polyreactivity
QVQLVESGGGLVQAGGSLRLSCAASGSTFGVNAMGWYRQAPGKERELVAGISSGTSTYYADSVKGRFTISRDNAKNTVYLQMNSLKPEDTAVYYCATRWSYRYGYWGQGTQVTVSS	high polyreactivity
QVQLVESGGGLVQAGGSLRLSCAASGSTFGVNTMGWYRQAPGKERELVAAITKSGGSTYYADSVKGRFTISRDNAKNTVYLQMNSLKPEDTAVYYCNTDYGRYLYYRYGYWGQGTQVTVSS	low polyreactivity
QVQLVESGGGLVQAGGSLRLSCAASGSTFGVNTMGWYRQAPGKERELVAAITSRGGSTYYADSVKGRFTISRDNAKNTVYLQMNSLKPEDTAVYYCAAEASYYRIRRYYWGQGTQVTVSS	high polyreactivity
QVQLVESGGGLVQAGGSLRLSCAASGSTFGVYAMGWYRQAPGKERELVAAINARGTRTRYADSVKGRFTISRDNAKNTVYLQMTSMKPEDTAVYYCAAVWYGYYSIDTDGYWGQGSQVTVSS	high polyreactivity
QVQLVESGGGLVQAGGSLRLSCAASGSTFGVYAMGWYRQAPGKERELVAAISGSGAGTYYADSVKGRFTISRDNAKNTVYLQMNSLKPEDTAVYYCAAETYYSIYDYWGQGTQVTVSS	high polyreactivity
QVQLVESGGGLVQAGGSLRLSCAASGSTFGVYNMGWYRQAPGQESELVAAITKSGGSTYYADSVMGLFTISRDNAKNTVYLQMNSMNPEDTAVYYCNTDYGRYLYYRFGYLGQGTQVTVSS	low polyreactivity
QVQLVESGGGLVQAGGSLRLSCAASGSTFGWNTMGWYRQAPGKERELVAAISWYGDRTYYADSVKGRFTISRDNAKNTVYLQMNSLKPEDTAVYYCARQRYYGYYYWGQGTQVTVSS	high polyreactivity
QVQLVESGGGLVQAGGSLRLSCAASGSTFGWYAMGLYRQAPVKERELVATISSGGSTYYADSVKGRFTISRDNAKNNVYLQMNSLKPEDTAVYYCAADYWTYEYPGYDYWGQGTQVTVSS	low polyreactivity
QVQLVESGGGLVQAGGSLRLSCAASGSTFGYNAMAWYRQAPGKERELVAAISWSGGSTYYADSVKGRFTISRDNAKNTVYLQMNSLKPEDTAVYYCATPYVKWNDYWGQGTQVTVSS	low polyreactivity
QVQLVESGGGLVQAGGSLRLSCAASGSTFGYNAMGWYRQAPGKEREFVAAITRRGGNTYYADSVKGRFTISRDNAKNTVYLQMNSLKPEDTAVYYCAARYLQGRYDYWGQGTQVTVSS	high polyreactivity
QVQLVESGGGLVQAGGSLRLSCAASGSTFGYNAMGWYRQAPGKERELVAAISSSGSSTSYADSVKGRFTISRDNAQNTVYLQMNSLKPEDTAVYYCAARWTRQRYRTSYYSWGQGTEVTVSS	high polyreactivity
QVQLVESGGGLVQAGGSLRLSCAASGSTFGYYAMGWYRQAPGKEREFVAAITSDGSSTYYADSVKGRFTISRDNAKNTVYLQMNSMKREDTAVYYCAADTFTYGGYKFYIFYWGQGTQVTVSS	high polyreactivity
QVQLVESGGGLVQAGGSLRLSCAASGSTFGYYAMGWYRQAPGKERELVAAINVSGGRTYYADSVKGRFTISRDNAKNTVYLQMNSLKPEDTAVYYCAASLYSYRSPYTFYYWGQGTQVTVSS	high polyreactivity
QVQLVESGGGLVQAGGSLRLSCAASGSTFGYYAMGWYRQAPGKERELVAAISGSGTSTYYADSVKGRFTISRDNAKNTVYLQMNSLKPEDTAVYYCATRYRYTGCGYWGQGSQVTVSS	low polyreactivity
QVQLVESGGGLVQAGGSLRLSCAASGSTFGYYAMGWYRQAPGKERELVAAISRSGTRTYYADSVKGRFTISRDNAKYTVYLQMNSLKPEDTAVYYCAVKGPARGYDYWGQGTQVTVSS	high polyreactivity
QVQLVESGGGLVQAGGSLRLSCAASGSTFGYYAMGWYRQAPGKERELVAAISWRGGSTYYADSVKGRFTISRDNAKNTVYLQMNSLKPEDTAVYYCAAAIFITGYGSYGYWGQGTQVTVSS	low polyreactivity
QVQLVESGGGLVQAGGSLRLSCAASGSTFGYYAMGWYRQAPGKERELVAAISYIGGSTYYADSVKGRFTISRDNANNTDYLQMNSQKPEDTAVYYCAAQYVTYAYDYWGQGTQVTVSS	low polyreactivity
QVQLVESGGGLVQAGGSLRLSCAASGSTFGYYAMGWYRQAPGKERELVARISGGTRTNYADSVKGRFTISRDNAKNTVYLQMNSLKPEDTAVYYCNAYYYIPFEGRGYSKMDYWGQGTQVTVSS	high polyreactivity
QVQLVESGGGLVQAGGSLRLSCAASGSTFGYYAMGWYRQAPGKERELVASITSDGSTNYADSVKGRFTISRDNAKNTVYLQMNSLKPEDSSVYYCAAYVWRYWHEYDYWGQGTQVTVSS	low polyreactivity
QVQLVESGGGLVQAGGSLRLSCAASGSTFGYYGMGWYRQAPGKETELVAAISTGGRTNYADSVKGRFTISRDNAKNTVYLQMNSLKPEDTAVYYCAADFLSPAYRPSWYRFDYWGLGTQVTVSS	low polyreactivity

Sequence	polyreactivity (PSR sort gate)
QVQLVESGGGLVQAGGSLRLSCAASGSTFGYYTMGWYRQAPGKERELVAAITWSGGSTYYADSVKGRFTISRDNAKNTVFLQMNSLKPEDTAVYYCAAEDYWTPFGYWGQGTQVTVSS	low polyreactivity
QVQLVESGGGLVQAGGSLRLSCAASGSTFGYYTMGWYRQAPGKERQLVAAISWSGGSTYYADSVKGRFTISRDNAKNTVYLLMNSLKPEDTAVYYCARGSQYRLWRTPHYYWGQGTQVTVSS	high polyreactivity
QVQLVESGGGLVQAGGSLRLSCAASGSTFGYYTMGWYRQEPGKERELVAAITWSGGSTYFEDSVKGRFTISRDNAKNTVYLQMNSLKPEDTAVYYCAADYYWTPFGYWGQGTLVTVSS	low polyreactivity
QVQLVESGGGLVQAGGSLRLSCAASGSTFGYYVMGWSRQAPGKERELVAAISWGGGSTYYADSVKGRFTISRDNAQNTVYLQMNSLNPEDTAVYYCNLRDQWWGYDYWGQGTQVTVSS	low polyreactivity
QVQLVESGGGLVQAGGSLRLSCAASGSTFHGNAMGWYRQAPGKERELVAAISRSGGSTYYADSVKGRFTISRDNAKNTVYLQMNSLKPEDTAVYYCAAETVYKWWYDYYYWGQGTQVTVSS	high polyreactivity
QVQLVESGGGLVQAGGSLRLSCAASGSTFHLYAMGWNRQAPGKERQFVAAIRGRGGNTYADSVKGRFTISRDNAKNTVYLQMNSLKPEDTAVYYCAAPLLRDLRSPYSYNYWGQGSQVTVSS	low polyreactivity
QVQLVESGGGLVQAGGSLRLSCAASGSTFHLYAMGWYRQAPGKEREIVAAIRGRGGNTYADSVKGRFTISRDNAKNTVYLQMNSLKPEDTAVYYCAAPLLRDLRSPYSYNYWGQGTQVTVSS	low polyreactivity
QVQLVESGGGLVQAGGSLRLSCAASGSTFHLYAMGWYRQAPGKERELVASITWSGGRTYYADSVKGRFTISRDYAKNTVYLHMNSLKPEDTAVYYCAAGDVNWSYSLLYTVVLYDSWGQGTQVTVSS	high polyreactivity
QVQLVESGGGLVQAGGSLRLSCAASGSTFHRNAMGWSRQAPGKERELVAAISFSGGRTYYADSVKGRFTISRDNAKNTVNLQMNSLKPEDTAVYYCAAVTASPGSYPDDYWGQGTQVTVSS	low polyreactivity
QVQLVESGGGLVQAGGSLRLSCAASGSTFHRYAMGWSRQAPGKERELVATINLNTGSTYADSVKGRFTISRDNAKNTVYVQMNSLKPEDTAVYYCAAYGRWPFTWYNYWGQGTQVTVSS	low polyreactivity
QVQLVESGGGLVQAGGSLRLSCAASGSTFHRYAMGWYRQAPGKERELVATITSRGGITYYADSVKGRFTISRDNSKNTVYLQMNSLNPEDTALYYCNTEDGTTPQYGYDQGMYYWGQGTQVTVSS	low polyreactivity
QVQLVESGGGLVQAGGSLRLSCAASGSTFHTYVMGWYRQAPGKERELVASISSGGSTYYADSVKGRFTISRDNAKNTVSLQMNSLKPEDTAVYYCAAGYPYYWHFDYWGQGSQVTVSS	low polyreactivity
QVQLVESGGGLVQAGGSLRLSCAASGSTFHWYDMGWYRQAPGKERELVAGINTSGDGTYYADSVKGRFTISRDNAKNTVYLQMNSLKPEDTAVYYCAAEYYTYWGYEDDYWGQGTQVTVSS	low polyreactivity
QVQLVESGGGLVQAGGSLRLSCAASGSTFHYYAMGWYRQAPGKERELVAAINSGARTYYADSVKGRFTISRDNAKNTVYLQMNSLKPEDTAVYYCAKDYTYSFGRSLDYWGQGTQVTVSS	low polyreactivity
QVQLVESGGGLVQAGGSLRLSCAASGSTFHYYAMGWYRQEPGKERELVAAISGSGSSTYYADSVKGRFTISRDNAKNTVYLQMNSLKPEDTAVYYCNARGHYPRARFGYKSGSDRYWGQGTQVTVSS	high polyreactivity
QVQLVESGGGLVQAGGSLRLSCAASGSTFIDYAMGWYRQAPGKERELVASITWSGGSTYYADSVKGRFTISRDNAKNTVYLQMNSLKPEDTAVYYCNADVNVGLEVRIVYEYDYWGQGTQVTVSS	low polyreactivity
QVQLVESGGGLVQAGGSLRLSCAASGSTFIGYDMGWFRQAPGTERELVAAISYSDGTYYADSVKGRFTISRDNAKNTVYLQMNSLKPEDTAVYYCAADSLYYRYDYWGQGTQVTVSS	low polyreactivity
QVQLVESGGGLVQAGGSLRLSCAASGSTFIGYDMGWYRQAPGQERELVAAISYSDGTYYADSVKGRFTISRDNAKNTVYLQMNSLKPEDTAVYYCATSYRDMGSHVGYWGQGTQLTVSS	low polyreactivity
QVQLVESGGGLVQAGGSLRLSCAASGSTFILNAMGWYRQAPGKEWELVAAISRSGGNTYYADSVKGRFTISRDIAKNTVYLQMNSLKPEDTAVYYCAATRRSHYYYWGQGTQVTVSS	high polyreactivity
QVQLVESGGGLVQAGGSLRLSCAASGSTFILNDMGWYRQAPGKERELVAAIDWGDSTTYYADSVKGRFTISRDNAKNTVYLQMNSLKPEDTAVYYCAADYAVSAFTRYPPTEYWGQGTQVTVSS	high polyreactivity
